From patent US20220281976A1 (Alector, published 2022)
Numbering of substitutions follows the chain as printed.

T1: mouse CD33 Fc fusion protein (mouse, UniProt Q63994 18-240, limits assumed)
T1 construct: also called mCD33-Fc
T1 sequence: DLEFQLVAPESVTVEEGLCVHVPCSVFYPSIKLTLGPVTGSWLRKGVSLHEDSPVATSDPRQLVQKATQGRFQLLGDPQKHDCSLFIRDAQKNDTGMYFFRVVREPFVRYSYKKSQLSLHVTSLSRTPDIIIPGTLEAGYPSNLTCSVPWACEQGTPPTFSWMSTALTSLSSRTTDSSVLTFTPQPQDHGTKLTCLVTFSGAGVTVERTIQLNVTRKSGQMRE

B1: C-20 (antibody, V domains shown)
VH: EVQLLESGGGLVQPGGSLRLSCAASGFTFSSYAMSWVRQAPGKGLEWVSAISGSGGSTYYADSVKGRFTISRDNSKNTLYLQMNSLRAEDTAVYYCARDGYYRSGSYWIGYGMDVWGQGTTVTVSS
VL: EIVLTQSPGTLSLSPGERATLSCRASQSVSSSFLAWYQQKPGQAPRLLIYGASSRATGIPDRFSGSGSGTDFTLTISRLEPEDFAVYYCQQVDSYPPTFGGGTKVEIK
notes: human IgG1
B2: C-15 (antibody, V domains shown)
VH: QVQLVESGGGVVQPGRSLRLSCAASGFTFSSYGMHWVRQAPGKGLEWVAVIWYDGSNKYYADSVKGRFTISRDNSKNTLYLQMNSLRAEDTAVYYCAKGVGYDTGTDMDVWGKGTTVTVSS
VL: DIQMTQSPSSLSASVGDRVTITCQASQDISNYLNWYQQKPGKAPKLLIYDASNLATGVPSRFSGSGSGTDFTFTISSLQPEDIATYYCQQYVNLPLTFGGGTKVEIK
notes: human IgG1
B3: C-26 (antibody, V domains shown)
VH: QLQLQESGPGLVKPSETLSLTCTVSGGSISSNSYYWGWIRQPPGKGLEWIGSIYYSGSTYYNPSLKSRVTISVDTSKNQFSLKLSSVTAADTAVYYCARSPVYYDSSGYFQYYGMDVWGQGTTVTVSS
VL: EIVLTQSPATLSLSPGERATLSCRASQSVSSYLAWYQQKPGQAPRLLIYDASKRATGIPARFSGSGSGTDFTLTISSLEPEDFAVYYCQQSIVWPPFTFGGGTKVEIK
notes: human IgG1
B4: C-12 (antibody, V domains shown)
VH: EVQLLESGGGLVQPGGSLRLSCAASGFTFSNYAMSWVRQAPGKGLEWVSAISGSGGSTYYADSVKGRFTISRDNSKNTLYLQMNSLRAEDTAVYYCARDGSRYSYGLVAYGMDVWGQGTTVTVSS
VL: EIVLTQSPGTLSLSPGERATLSCRASQSVSSSFLAWYQQKPGQAPRLLIYGASSRATGIPDRFSGSGSGTDFTLTISRLEPEDFAVYYCQQSQLRPTFGGGTKVEIK
notes: human IgG1
B5: C-14 (antibody, V domains shown)
VH: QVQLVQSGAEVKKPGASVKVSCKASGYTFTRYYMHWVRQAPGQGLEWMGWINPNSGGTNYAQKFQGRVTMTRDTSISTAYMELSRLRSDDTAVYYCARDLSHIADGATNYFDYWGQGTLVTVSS
VL: DIQMTQSPSSVSASVGDRVTITCRASQGISSWLAWYQQKPGKAPKLLIYAASSLQSGVPSRFSGSGSGTDFTLTISSLQPEDFATYYCQQANYFPTFGGGTKVEIK
notes: human IgG1
B6: C-10 (antibody, V domains shown)
VH: QVQLVQSGAEVKKPGSSVKVSCKASGGTFSNYAISWVRQAPGQGLEWMGGIIPIFGTANYAQKFQGRVTITADESTSTAYMELSSLRSEDTAVYYCARDTGTYVTGDGMDVWGQGTTVTVSS
VL: EIVMTQSPATLSVSPGERATLSCRASQSVSSNLAWYQQKPGQAPRLLIYGASTRATGIPARFSGSGSGTEFTLTISSLQSEDFAVYYCQQYVNLPITFGGGTKVEIK
notes: human IgG1
B7: C-11 (antibody, V domains shown)
VH: B6 VH
VL: B6 VL with G50S, V92I, N93V
notes: human IgG1
B8: C-16 (antibody, V domains shown)
VH: EVQLVESGGGLVQPGGSLRLSCAASGFTFSSYWMSWVRQAPGKGLEWVANINQDGSEKYYVDSVKGRFTISRDNAKNSLYLQMNSLRAEDTAVYYCAREGSDRHPFDYWGQGTLVTVSS
VL: DIQMTQSPSSLSASVGDRVTITCRASQSISSYLNWYQQKPGKAPKLLIYAASSLQSGVPSRFSGSGSGTDFTLTISSLQPEDFATYYCQQAYLVPLTFGGGTKVEIK
notes: human IgG1
B9: C-23 (antibody, V domains shown)
VH: QVQLQESGPGLVKPSETLSLTCAVSGYSISSGYYWGWIRQPPGKGLEWIGTIYHSGSTYYNPSLKSRVTISVDTSKNQFSLKLSSVTAADTAVYYCAREVGVVGALPYFDYWGQGTLVTVSS
VL: B8 VL with A50G, Y92S, L93S, V94S, L96P
notes: human IgG1
B10: C-25 (antibody, V domains shown)
VH: EVQLVESGGGLVQPGGSLRLSCAASGFTFSSYWMSWVRQAPGKGLEWVANIKSDGSEKYYVDSVKGRFTISRDNAKNSLYLQMNSLRAEDTAVYYCAREGFRDGINWFDPWGQGTLVTVSS
VL: B8 VL with S31R, A91Q, Y92F, V94T, L96I
notes: human IgG1
B11: C-22 (antibody, V domains shown)
VH: QVQLQESGPGLVKPSETLSLTCAVSGYSISSGYYWGWIRQPPGKGLEWIGSIYHSGNTYYNPSLKSRVTISVDTSKNQFSLKLSSVTAADTAVYYCARDGRYSSSGELYYGMDVWGQGTTVTVSS
VL: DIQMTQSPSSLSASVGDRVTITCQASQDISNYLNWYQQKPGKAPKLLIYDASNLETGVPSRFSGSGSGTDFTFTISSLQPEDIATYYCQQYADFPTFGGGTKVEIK
notes: human IgG1

Target: T2, human CD33 (human, UniProt P20138 18-364)
Test: cell-based or functional assay

T2 sequence (P20138 18-364): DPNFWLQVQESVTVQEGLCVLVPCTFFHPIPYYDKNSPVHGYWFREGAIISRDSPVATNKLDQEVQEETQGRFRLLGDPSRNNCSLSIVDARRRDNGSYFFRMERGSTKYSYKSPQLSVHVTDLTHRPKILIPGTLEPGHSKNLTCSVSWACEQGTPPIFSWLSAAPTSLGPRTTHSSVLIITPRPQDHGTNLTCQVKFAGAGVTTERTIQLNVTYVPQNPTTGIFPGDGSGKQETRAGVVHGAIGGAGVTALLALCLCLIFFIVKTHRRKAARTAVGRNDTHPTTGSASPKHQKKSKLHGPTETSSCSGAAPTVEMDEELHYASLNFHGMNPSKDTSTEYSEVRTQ

Percent CD33 Surface Expression, DC % CD33 | Percent CD33 Surface Expression, Macrophage % CD33 | Percent CD33 Surface Expression, Monocyte % CD33 | Binder
30.2% | 54.3% | 53.9% | B1
17% | 42% | 32.6% | B2
18.8% | 45.1% | 33% | B3
23.6% | 68.5% | 54.2% | B4
63.1% | 97.4% | 101% | B5
19.5% | 44.5% | 31.5% | B6
23.3% | 64.3% | 41.3% | B7
19.5% | 62.6% | 42.4% | B8
69.5% | – | 71.3% | B9
22.3% | 41.9% | 35.4% | B10
17% | 44% | 40.7% | B11

Target: T1, mouse CD33 Fc fusion protein
Test: ForteBio BLI or MSD-SET

binding result | Binder
no binding (tested: 100 nM) | B1
no binding (tested: 100 nM) | B2
no binding (tested: 100 nM) | B3
no binding (tested: 100 nM) | B4
no binding (tested: 100 nM) | B5
no binding (tested: 100 nM) | B6
no binding (tested: 100 nM) | B7
no binding (tested: 100 nM) | B8
no binding (tested: 100 nM) | B9
no binding (tested: 100 nM) | B10
no binding (tested: 100 nM) | B11

Target: T3, human CD33 Fc fusion protein (human, UniProt P20138 18-259)
T3 construct: also called hCD33-Fc; human CD33/Fc chimera (R&D Systems)
Test: ForteBio BLI or MSD-SET, IgG, avid;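 further: Anti-CD33 IgG affinity by BLI, IgG captured on AHQ sensors with antigen in solution and a one-to-one kinetic fit, or by MSD solution equilibrium titration with quadratic fit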
Protocol: (§1) The binding affinity of each anti-CD33 antibody was determined by measuring their KD by ForteBio or MSD-SET. […] Briefly, ForteBio affinity measurements were performed by loading IgGs on-line onto AHQ sensors. Sensors were equilibrated off-line in assay buffer for 30 min and then monitored on-line for 60 seconds for baseline establishment. Sensors with loaded IgGs were exposed to 100 nM antigen for 5 minutes, then transferred to assay buffer for 5 min for off-rate measurement. Kinetics were analyzed using the 1:1 binding model.
(§2) Solution equilibrium titrations (SET) were performed in PBS+0.1% IgG-Free BSA (PBSF) with antigen held constant at 50 pM and incubated with 3-to 5-fold serial dilutions of antibody starting at 10 nM. Antibodies (20 nM in PBS) were coated onto standard bind MSD-ECL plates overnight at 4° C. or at room temperature for 30 min. Plates were then blocked for 30 min with shaking at 700 rpm, followed by three washes with wash buffer (PBSF+0.05% Tween 20). SET samples were applied and incubated on the plates for 150s with shaking at 700 rpm followed by one wash. Antigen captured on a plate was detected with 250 ng/mL sulfotag-labeled streptavidin in PBSF by incubation on the plate for 3 min. The plates were washed three times with wash buffer and then read on the MSD Sector Imager 2400 instrument using 1× Read Buffer T with surfactant. The percent free antigen was plotted as a function of titrated antibody in Prism and fit to a quadratic equation to extract the KD. To improve throughput, liquid handling robots were used throughout MSD-SET experiments, including SET sample preparation.

T3 sequence (P20138 18-259 limits assumed): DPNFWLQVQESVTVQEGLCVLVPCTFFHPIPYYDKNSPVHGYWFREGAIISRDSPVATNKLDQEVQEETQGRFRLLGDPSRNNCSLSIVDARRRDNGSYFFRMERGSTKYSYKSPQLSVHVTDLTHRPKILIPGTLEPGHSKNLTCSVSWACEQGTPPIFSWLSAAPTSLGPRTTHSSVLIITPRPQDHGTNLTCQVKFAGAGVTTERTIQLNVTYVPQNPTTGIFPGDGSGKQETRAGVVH

Kd | Binder
0.304 nM | B1
1.82 nM | B2
0.388 nM | B3
1.84 nM | B4
1.28 nM | B5
1.41 nM | B6
1.56 nM | B7
1.35 nM | B8
3.39 nM | B9
1.85 nM | B10
0.445 nM | B11

Target: T2, human CD33
Test: flow cytometry, human primary T cells;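 further: binding of anti-CD33 antibodies at 10 ug/ml to human primary T cells, 1 h on ice, detected with PE-labelled secondary antibody, read as flow cytometry MFI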

T cell MFI | Binder
205 | B1
206 | B2
198 | B3
182 | B4
35.7 | B5
246 | B6
231 | B7
229 | B8
242 | B9
187 | B10
207 | B11

Target: T2, human CD33
Test: flow cytometry, human primary monocytes;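 further: binding of anti-CD33 antibodies at 10 ug/ml to human primary monocytes, 1 h on ice, detected by PE-labelled secondary antibody, flow cytometry readout as mean fluorescence intensity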
Set-up: reference not given here

Monocyte MFI | Binder
196 | B1
191 | B2
188 | B3
208 | B4
178 | B5
107 | B6
106 | B7
133 | B8
128 | B9
139 | B10
188 | B11

Target: T2, human CD33
Test: flow cytometry, human primary macrophages;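 further: binding of CD33 antibodies at 10 µg/ml to human primary macrophages, 1 h on ice, detected with PE-labelled secondary antibody by flow cytometry, reported as MFI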

Macrophage MFI | Binder
730 | B1
883 | B2
926 | B3
1080 | B4
746 | B5
792 | B6
795 | B7
711 | B8
771 | B9
877 | B10
912 | B11

Target: T2, human CD33
Test: flow cytometry, human primary dendritic cells;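 further: binding of anti-CD33 antibodies (10 ug/ml, 1 h on ice) to human primary dendritic cells, detected with a PE-labelled secondary antibody, reported as flow cytometry MFI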
Protocol: Initial characterization of CD33 antibodies involved determining their ability to bind CD33 expressed on a CHO cell line, on human primary monocytes, human primary macrophages, human primary dendritic cells, and on human primary T cells. Cells were harvested, plated at 10⁶/ml in a 96 well plate, and incubated in 100 ul PBS containing 2% FBS, 2 mM EDTA and 10 ug/ml Mab and Fc blocking reagent for 1 hour in ice. Cells were washed twice and incubated in 100 ul PBS containing 2% FBS, 2 mM EDTA and 5 ug/ml PE-conjugated secondary antibody for 30 minutes on ice. Cells were washed twice in cold PBS and analyze by flow cytometry on a BD FACS Canto. Data analysis and calculation of MFI values was performed with FlowJo (TreeStar) software version 10.0.7.

DC MFI | Binder
1700 | B1
2020 | B2
1960 | B3
1120 | B4
1120 | B5
1230 | B6
1030 | B7
1750 | B8
1050 | B9
1790 | B10
1650 | B11

Target: T4, human monomeric His tagged CD33 protein (human, UniProt P20138 18-259)
T4 construct: also called hCD33-His
Test: ForteBio BLI or MSD-SET, IgG, monomeric antigen;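 further: BLI: antibodies captured on AHQ sensors, 100 nM antigen association 5 min, dissociation 5 min, 1:1 fit. MSD-SET: antigen fixed at 50 pM, antibody titrated, quadratic fit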
Protocol: as §1, §2

T4 sequence (P20138 18-259 limits assumed): as above

Kd | Binder
0.958 nM | B1
6.55 nM | B2
1.57 nM | B3
7.47 nM | B4
3.49 nM | B5
6.24 nM | B6
7.12 nM | B7
5.87 nM | B8
21.1 nM | B9
8.78 nM | B10
1.97 nM | B11

Target: T3, human CD33 Fc fusion protein
Test: RBC adhesion to plate-bound CD33-Fc; antibody 0.5 ug/ml;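 further: Plate-coated CD33-Fc preincubated 1 h with antibody, then red blood cells added for 1 h at room temperature, adherent cells lysed and quantified via peroxidase activity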
Protocol: Briefly, 5 ug/ml CD33-Fc was coated overnight at RT in 96 well Immunolon plates, then washed with PBS, blocked for one hour with binding buffer (PBS containing %0.25 BSA 1 mM CaCl₂). CD33 antibodies (0.5 ug/ml or 1.0 ug/ml) or Fabs (25 ug/ml) were bound for one hour at RT with gentle rocking. After removal of unbound antibody, red blood cells were added to each well at a concentration of 3.0×10⁶ cells per ml and incubated at RT for one hour. Unbound RBCs were then carefully washed off 3× with PBS, and water was added to each well for hypotonic lysis of bound RBCs. The plate was transferred to −80° C. for 10 minutes, followed by 37° C. for 15 minutes. Bound RBCs were detected by peroxidase activity, followed by 2N sulfuric acid to stop the reaction.

Percent RBC Binding to CD33 | Binder
12.5% | B1
15.3% | B2
19.2% | B3
6.34% | B4
76.5% | B5
13.8% | B6
13% | B7
17.2% | B8
13.8% | B9
11.3% | B10
11.5% | B11

Target: T3, human CD33 Fc fusion protein
Test: RBC adhesion to plate-bound CD33-Fc; antibody 1.0 ug/ml;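 further: red blood cells adhering to plate-coated CD33-Fc after 1 h antibody pretreatment, then 1 h at room temperature, bound cells read as peroxidase activity after lysis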

Percent RBC Binding to CD33 | Binder
9.4% | B1
8.77% | B2
15.2% | B3
17.8% | B4
80.8% | B5
12.3% | B6
7.6% | B7
7.69% | B8
8.42% | B9
10.1% | B10
9.95% | B11
